In patent publication US20250034594A1, “RNA-GUIDED GENOME RECOMBINEERING AT KILOBASE SCALE” (THE BOARD OF TRUSTEES OF THE LELAND STANFORD JUNIOR …, priority 2021, published 2025):

Experiments:
Type in all cases: cell-based
gene editing with dCas9 = assay: Screen of 322 new SSAP proteins, gene editing activity with dCas9 (Table 5); design: dCas9 with SSAP activity: scale not given here
Summary of the method: (§1)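 The 322 SSAP proteins were found in sequence data and then synthesized. Each was screened for gene editing activity when paired with Cas9 and with dCas9.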

gene editing with Cas9 = assay: Screen of 322 new SSAP proteins, gene editing activity with Cas9 (Table 5); design: Cas9 with SSAP activity: scale not given here
Summary of the method: as §1

[1] = tested on: gene editing with Cas9 and dCas9; assay: Screen of 322 new SSAP proteins, activity across all experiments (Cas9 and dCas9, Table 5); design: scale not given here
Summary of the method: as §1

B1: SSAP_314: SEQ ID NO: 483; Ferrimonas kyonanensis (protein, listed as Ferrimonas kyonanensis)
chain: NQMINEPDFVTALKDSRETYIDLTQNGGFNLNYGLEAGWAHQQIEASRYQNLDLTCSEPGSIMQAFCEAARLGLSFDPRKKHIYLMGQKDVQSGRTITILYVGYKGMIALACRTGFMIGGHADLVFEEDTFTYRSGTQLPVHEHDGRPNHERGRLKCGYVVAHQPGGMVKTLLVPKEVLLEAASNGLNAGGSNNTWCGPYMEMMYQKTCWRYAFNAWYSELEAVGMTQAQLESATTAVSYQ
Which “dCas9 with SSAP activity” value (gene editing with dCas9) does the source give for B1 here?
Its value is −2.593.

And the “dCas9 with SSAP activity (normalized)” value (gene editing with dCas9)?
The value was −0.657.

And the “Cas9 with SSAP activity” value (gene editing with Cas9)?
Its value is 0.114.

What about the “Cas9 with SSAP activity (normalized)” value (gene editing with Cas9) of the same molecule?
The value was 0.106.

And the “Activity across all experiments” value [1]?
Its value is −1.240.

B2: SSAP_129: SEQ ID NO: 298; Lacrimispora indolis (protein, listed as Lacrimispora indolis)
chain: SDVKQELEKRAAGGGGQSQSVRLTKNMTIVDMVKALEPEIKRALPSILTPERFTRMALSAINNTPKLGECTPMSFIAALMNAAQLGLEPNTPLGQAYLIPYKNKGVLECQFQLGYRGLIDLAYRNERMQSVEAQVVYENDEFSYELGLHPSLIHRPSFDEPGEIRAFYAIFRLDNGGFRFEVMSKSYVDAYAARYSKAFTSDFSPWKSNYEGMAKKTVIKQLLKYAPMKSEFQKAVTMDETIKTELSVDMSEVSNQEVIDRELTEQVA
With B2 as the molecule, how does the “dCas9 with SSAP activity” value (gene editing with dCas9) read?
Its value is −2.431.

And the “dCas9 with SSAP activity (normalized)” value (gene editing with dCas9)?
Its value is −0.313.

What about the “Cas9 with SSAP activity” value (gene editing with Cas9) of the same molecule?
The value was 0.031.

And the “Cas9 with SSAP activity (normalized)” value (gene editing with Cas9)?
Its value is 0.019.

What about the “Activity across all experiments” value [1] of the same molecule?
The value was −1.200.

B3: SSAP_257: SEQ ID NO: 426; Listeria (multispecies) (protein, listed as Listeria sp.)
chain: ATNDELKNQLANKQNGGQVASAQSLDLKGLLEAPTMRKKFEKVLDKKAPQFLTSLLNLYNGDDYLQKTDPMTVVTSAMVAATLDLPIDKNLGYAWIVPYKGRAQFQLGYKGYIQLALRSGQYKSINVIEVREGELLKWNRLTEEIELDLDNNTSEKVVGYCGYFQLINGFEKTVYWTRKEIEAHKQKFSKSDFGWKKDYDAMAKKTVLRNMLSKWGILSIDMQTAVTEDEAEPRERKDVTEDESIPDIIDAPITPSDTLEAGSEVQGSMI
What does the source list for B3?
dCas9 with SSAP activity (gene editing with dCas9): −2.649; dCas9 with SSAP activity (normalized) (gene editing with dCas9): −1.189; Cas9 with SSAP activity (gene editing with Cas9): 0.216; Cas9 with SSAP activity (normalized) (gene editing with Cas9): 0.821; Activity across all experiments [1]: −1.217

B4: SSAP_242: SEQ ID NO: 411; Lactococcus sp. S-13 (protein, listed as Lactococcus sp.)
chain: SNQITKTQQTLKSPEVKAKFEEVLGKKADGFVASLLSVVGNSNLKTVEANSVMTAAMKAATLDLPIEPSLGFAYVIPYGREAQFQIGYKGFIQLALRSGQLTGLNCGIVYESQFVSYDPLFEELELDFTQQASGDAVGYFASMKLANGFKKVTYWSKEQVLAHKKKFVKSANGPWRDHFDAMAQKTVLKAMLTKYAPASIESKMIQTAITEDDSERFENAKDVTPDEPVISIDEPVTSEVSQNESSAESQEQFPEDEVEELFPIGKS
How did the “dCas9 with SSAP activity” value (gene editing with dCas9) turn out when B4 was run?
The value was 3.640.

What about the “dCas9 with SSAP activity (normalized)” value (gene editing with dCas9) of the same molecule?
Its value is 2.062.

And the “Cas9 with SSAP activity” value (gene editing with Cas9)?
The value was 2.358.

And the “Cas9 with SSAP activity (normalized)” value (gene editing with Cas9)?
Its value is 1.579.

What about the “Activity across all experiments” value [1] of the same molecule?
The value was 2.999.

B5: SSAP_54: SEQ ID NO: 223; Bet Pseudomonas phage PS-1 (protein, listed as Pseudomonas sp.)
chain: SNVATIKPSSLSARMAERFGVDPNEMMATLKATAFKGQVSDAQMQALLIVADQYGLNPWTKEIYAFPDKGGIVPVVGVDGWSRIINENGAFDGMDFQQDDESCTCIIYRKDRNHPIKVTEWMAECKRNTQPWQSHPKRMLRHKAMIQCARLAFGYTGIFDEDEAQRIVEKDVTPAVNEPDITPALEAIKNASSMEELHAAFKAAWNQHPSARARLTAVKDERKKALSEPIEGELVENEDGPAQQ
Which results are given for B5?
dCas9 with SSAP activity (gene editing with dCas9): −2.517; dCas9 with SSAP activity (normalized) (gene editing with dCas9): −0.565; Cas9 with SSAP activity (gene editing with Cas9): −0.011; Cas9 with SSAP activity (normalized) (gene editing with Cas9): −0.061; Activity across all experiments [1]: −1.264

B6: SSAP_145: SEQ ID NO: 314; Roseburia sp. CAG: 182 (protein, listed as Roseburia sp.)
chain: DVKEELAKMAEEKPTKKLTKSMSIQDMIKVIEPEIKKALPSVLTPERFTRMALSAINNTPKLAECSQISFLAALMNAAQLGLEPNTPLGQAYLIPFQNKGKLECQFQIGYKGIIELVYRNPLIQTIQAQVVYENDEFEYELGLNSRLFHRPALYDRGETVLFYALFKMSNGGYGFEVLSKQDMDAYAKRYSKGISSEYSPWKSNYEEMAKKTMIKKVLKYAPIRTDFQKAVSMDESIKKELSVDMSEVSNENIIDMEEITQEEE
What does the source list for B6?
dCas9 with SSAP activity (gene editing with dCas9): −2.440; dCas9 with SSAP activity (normalized) (gene editing with dCas9): −0.309; Cas9 with SSAP activity (gene editing with Cas9): −0.211; Cas9 with SSAP activity (normalized) (gene editing with Cas9): −0.214; Activity across all experiments [1]: −1.325

B7: SSAP_30: SEQ ID NO: 199 (protein)
chain: EKPKLIQRFAERFSVDPNKLFDTLKATAFKQRDGSAPTNEQMMALLVVADQYGLNPFTKEIFAFPDKQAGIIPVVGVDGWSRIINQHDQFDGMEFKTSETKVSLDGAKECPEWMECIIYRRDRSHPVKITEYLDEVYRPPFEGNGKNGPYRVDGPWQTHTKRMLRHKSMIQCSRIAFGFVGIFDQDEAERIIEGQATHVVEPSVIPPEQVDDRTRGLVYKLIERAEASNAWNSALEYANEHFQGVELTFAKQEIFNAQQQAAKALTQPLAS
How did the “dCas9 with SSAP activity” value (gene editing with dCas9) turn out when B7 was run?
The value was −2.667.

What about the “dCas9 with SSAP activity (normalized)” value (gene editing with dCas9) of the same molecule?
Its value is −0.795.

And the “Cas9 with SSAP activity” value (gene editing with Cas9)?
Its value is 0.813.

What about the “Cas9 with SSAP activity (normalized)” value (gene editing with Cas9) of the same molecule?
Its value is 0.564.

What about the “Activity across all experiments” value [1] of the same molecule?
The value was −0.927.

B8: SSAP_319: SEQ ID NO: 488; Helicobacter trogontum (protein, listed as Helicobacter trogontum)
chain: SNITTIQRKNEALALLENKEIQERLCALCGNEASKDKFKASLLNIALDSNLSACSMQSIVKASLDIAGLKLSLNKNLGKAYIVPRKVKIGNDYITEARIDIGYKGWLELAKRSKLSVKAHSVFDCDDFVYSVDGVDEYMKLTPNFELRQEHDSAWVKEHLKGIVVGIKDLKSGDSEVKFVSKGTLLKIMQKNDSVKNGKYSAYTDWLHEMLLAKAIKSCLSKTAMSEDTFYLIISNNKLFI
How did the “dCas9 with SSAP activity” value (gene editing with dCas9) turn out when B8 was run?
Its value is −2.508.

What about the “dCas9 with SSAP activity (normalized)” value (gene editing with dCas9) of the same molecule?
The value was −0.276.

And the “Cas9 with SSAP activity” value (gene editing with Cas9)?
Its value is 0.742.

What about the “Cas9 with SSAP activity (normalized)” value (gene editing with Cas9) of the same molecule?
Its value is 1.773.

And the “Activity across all experiments” value [1]?
Its value is −0.883.

B9: SSAP_274: SEQ ID NO: 443; Clostridium liquoris (protein, listed as Clostridium liquoris)
chain: TTASELKNQLATRKETGVGSAGNTVKGLLESPAIKKRFEEVLKQRAPQYMSSIVNLVNGDANLKKCDQMSVIASCMVAATLDLPVDKNLGYAWVVPYGNKAQFQLGYKGYVQLALRTGQYKSINVIEIHEGELIEWNPLTEELRIDFEKKKSDAIIGYAGYFELINGFRKSTYWTKEQITKHKNKFSKSDFGWKKDFDAMAKKTVLRNMLSKWGILSIEMQNAYTADQETIKSEVLETGNIKENVEYVEADFDVDFEGTPFEEGVTNE
How did the “dCas9 with SSAP activity” value (gene editing with dCas9) turn out when B9 was run?
The value was −2.423.

And the “dCas9 with SSAP activity (normalized)” value (gene editing with dCas9)?
The value was −0.328.

What about the “Cas9 with SSAP activity” value (gene editing with Cas9) of the same molecule?
The value was 0.280.

And the “Cas9 with SSAP activity (normalized)” value (gene editing with Cas9)?
Its value is 0.259.

What about the “Activity across all experiments” value [1] of the same molecule?
The value was −1.072.
